The text below walks through data of paper PMC9352551, “Energetic determinants of animal cell polarity regulator Par-3 interaction with the Par complex” (The Journal of Biological Chemistry, 2022).

T1: Par-3 PDZ2 (his-purified, soluble) (Drosophila, UniProt O96782 444-533)
T1 construct: Par-3 (Bazooka), Drosophila, residues 444-533; From pET19; also called soluble PDZ2; source: E. coli BL21 (DE3), his-purified
T1 sequence (looked up): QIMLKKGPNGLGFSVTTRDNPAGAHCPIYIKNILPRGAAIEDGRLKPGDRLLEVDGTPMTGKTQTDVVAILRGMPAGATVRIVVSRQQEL

T2: Par-3 PDZ3 (his-purified, soluble) (Drosophila, UniProt O96782 616-741)
T2 construct: Par-3 (Bazooka), Drosophila, residues 616-741; From pET19; source: E. coli BL21 (DE3), his-purified
T2 sequence (looked up): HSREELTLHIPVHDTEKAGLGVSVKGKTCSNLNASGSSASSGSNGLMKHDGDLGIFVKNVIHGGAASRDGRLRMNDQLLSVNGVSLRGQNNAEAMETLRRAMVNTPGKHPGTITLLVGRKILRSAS

T3: Par complex (his-Par-6, aPKC) (Drosophila, UniProt O97111 1-351; A1Z9X0 1-606)
T3 construct: Par-6, Drosophila, residues 1-351; atypical protein kinase C (aPKC), Drosophila, residues 1-606; Construct as in PMID 32084408; also called full Par complex; source: HEK 293F, transfected (pCMV), purified (Ni-NTA or cobalt resin, Source Q anion exchange)
T3 sequence (looked up) 1: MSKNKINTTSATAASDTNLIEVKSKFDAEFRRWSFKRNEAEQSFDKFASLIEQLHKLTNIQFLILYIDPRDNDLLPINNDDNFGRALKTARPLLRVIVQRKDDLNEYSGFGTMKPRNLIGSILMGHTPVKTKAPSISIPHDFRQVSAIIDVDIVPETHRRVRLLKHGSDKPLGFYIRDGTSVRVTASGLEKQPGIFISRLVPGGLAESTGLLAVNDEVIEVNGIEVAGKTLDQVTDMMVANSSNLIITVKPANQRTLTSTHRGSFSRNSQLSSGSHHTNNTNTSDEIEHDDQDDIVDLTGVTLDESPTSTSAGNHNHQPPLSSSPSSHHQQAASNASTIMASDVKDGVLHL
T3 sequence (looked up) 2: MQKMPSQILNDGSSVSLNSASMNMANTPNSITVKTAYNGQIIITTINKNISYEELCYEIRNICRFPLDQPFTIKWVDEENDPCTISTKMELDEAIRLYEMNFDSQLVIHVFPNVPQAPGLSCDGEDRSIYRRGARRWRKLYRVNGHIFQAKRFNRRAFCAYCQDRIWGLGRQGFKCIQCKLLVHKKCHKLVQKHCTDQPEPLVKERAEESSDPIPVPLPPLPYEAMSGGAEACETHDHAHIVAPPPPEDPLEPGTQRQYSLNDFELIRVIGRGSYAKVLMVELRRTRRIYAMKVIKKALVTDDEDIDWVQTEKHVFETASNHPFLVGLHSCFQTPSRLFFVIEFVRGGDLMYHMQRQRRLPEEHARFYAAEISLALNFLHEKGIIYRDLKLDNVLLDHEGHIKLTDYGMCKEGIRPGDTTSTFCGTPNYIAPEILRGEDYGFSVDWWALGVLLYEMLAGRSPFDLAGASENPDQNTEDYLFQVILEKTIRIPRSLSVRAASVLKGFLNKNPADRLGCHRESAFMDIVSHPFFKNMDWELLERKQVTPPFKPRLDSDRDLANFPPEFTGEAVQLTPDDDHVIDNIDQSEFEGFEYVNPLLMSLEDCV

T4: Par complex Par-6ΔPBM (Drosophila, UniProt O97111 1-343; A1Z9X0 1-606)
T4 construct: aPKC, Drosophila, residues 1-606; Construct as in PMID 32084408; also called Par complex lacking the Par-6 PBM; Par-6ΔPBM/aPKC; source: HEK 293F, transfected (pCMV), purified (Ni-NTA or cobalt resin, Source Q anion exchange)
T4 sequence (looked up) 1: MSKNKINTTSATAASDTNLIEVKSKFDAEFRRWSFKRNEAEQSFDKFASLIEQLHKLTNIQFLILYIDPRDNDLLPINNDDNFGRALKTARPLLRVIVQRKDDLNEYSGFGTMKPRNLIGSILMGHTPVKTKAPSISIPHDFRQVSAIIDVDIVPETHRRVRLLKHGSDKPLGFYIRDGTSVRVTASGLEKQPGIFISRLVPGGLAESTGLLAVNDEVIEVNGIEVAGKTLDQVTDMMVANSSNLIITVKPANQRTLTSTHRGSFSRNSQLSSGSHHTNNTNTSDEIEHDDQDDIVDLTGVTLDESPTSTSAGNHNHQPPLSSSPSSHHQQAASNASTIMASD
T4 sequence (looked up) 2: T3 sequence (looked up) 2

B1: aPKC KD-PBM (domain or fragment, Drosophila, UniProt A1Z9X0 259-606, looked up)
chain: YSLNDFELIRVIGRGSYAKVLMVELRRTRRIYAMKVIKKALVTDDEDIDWVQTEKHVFETASNHPFLVGLHSCFQTPSRLFFVIEFVRGGDLMYHMQRQRRLPEEHARFYAAEISLALNFLHEKGIIYRDLKLDNVLLDHEGHIKLTDYGMCKEGIRPGDTTSTFCGTPNYIAPEILRGEDYGFSVDWWALGVLLYEMLAGRSPFDLAGASENPDQNTEDYLFQVILEKTIRIPRSLSVRAASVLKGFLNKNPADRLGCHRESAFMDIVSHPFFKNMDWELLERKQVTPPFKPRLDSDRDLANFPPEFTGEAVQLTPDDDHVIDNIDQSEFEGFEYVNPLLMSLEDCV
notes: From pBH; also called his aPKC kinase domain-PBM; aPKC kinase domain–PBM; source: E. coli BL21 (DE3), his-purified (Ni-NTA) partially under denaturing conditions (8 M urea)
B2: GST-aPKC PBM (domain or fragment, Drosophila, UniProt A1Z9X0 583-606, looked up)
chain: NIDQSEFEGFEYVNPLLMSLEDCV
notes: From pGEX; construct as in PMID 32084408
B3: MBP-Par-3 PDZ1-APM (domain or fragment, Drosophila, UniProt O96782 309-987, looked up)
chain: DGEMLLIINEYGSPLGLTALPDKEHGGGLLVQHVEPGSRAERGQLRRDDRILEINGIKLIGLTESQVQEQLRRALESSELRVRVLRGDRNRRQQRDSKVADMVEVATVSPTRKPHAAPVGTSLQVANTRKLGRKIQIMLKKGPNGLGFSVTTRDNPAGAHCPIYIKNILPRGAAIEDGRLKPGDRLLEVDGTPMTGKTQTDVVAILRGMPAGATVRIVVSRQQELAEQADQPAEKSAGVAVAPSVAPPAVPAAAAPAPPIPVQKSSSARSLFTHQQQSQLNESQHFIDAGSESAASNDSLPPSSNSWHSREELTLHIPVHDTEKAGLGVSVKGKTCSNLNASGSSASSGSNGLMKHDGDLGIFVKNVIHGGAASRDGRLRMNDQLLSVNGVSLRGQNNAEAMETLRRAMVNTPGKHPGTITLLVGRKILRSASSSDILDHSNSHSHSHSNSSGGSNSNGSGNNNNSSSNASDNSGATVIYLSPEKREQRCNGGGGGGSAGNEMNRWSNPVLDRLTGGICSSNSAQPSSQQSHQQQPHPSQQQQQQRRLPAAPVCSSAALRNESYYMATNDNWSPAQMHLMTAHGNTALLIEDDAEPMSPTLPARPHDGQHCNTSSANPSQNLAVGNQGPPINTVPGTPSTSSNFDATYSSQLSLETNSGVEHFSRDALGRRSISEKHHA
notes: Par-3 (Bazooka), Drosophila, residues 309-987 (PDZ1 to the aPKC phosphorylation motif); From pMAL; construct as in PMID 32084408; not shown: MBP, N-terminal, kept; His tag, C-terminal, kept

What all share (settings): both partners purified
Experiment [1] deals with B3. Briefly: supernatant depletion assay; MBP-Par-3 (C-terminal his-tag, his-purified) on amylose resin (solid phase); soluble protein left in the supernatant quantified on a Coomassie gel; 10 min at 20 °C; 10 mM Hepes pH 7.5, 100 mM NaCl, 1 mM DTT, 200 μM ATP, 5 mM MgCl2, 0.1% Tween-20; 'apparent'.
Experiment [2] addresses B3. Briefly: pull-down; GST-aPKC PBM on glutathione resin with Par-3 PDZ1-APM and the Par complex as soluble proteins; room temperature, 30 to 60 min; 10 mM Hepes pH 7.5, 100 mM NaCl, 1 mM DTT, 200 μM ATP, 5 mM MgCl2, 0.1% Tween-20; Coomassie gel.
The target of experiment [3] is T1, Par-3 PDZ2 (his-purified, soluble). Kind of experiment: supernatant depletion assay; GST-fused protein on glutathione agarose resin (solid phase, 'ligand'); soluble protein ('receptor') left in the supernatant at equilibrium quantified on a Coomassie gel; 1 h at 20 °C; 10 mM Hepes pH 7.5, 100 mM NaCl, 1 mM DTT, 200 μM ATP, 5 mM MgCl2, 0.1% Tween-20; single-site equation; 'apparent' for Par-3 variants that could bind more than one Par complex; ATP replaced with ADP in one ….

For experiment [4], the target named is T2, Par-3 PDZ3 (his-purified, soluble). The experiment is described as above.
In experiment [5] the target is T3, Par complex (his-Par-6, aPKC). Briefly: supernatant depletion assay; MBP-Par-3 (C-terminal his-tag, his-purified) on amylose resin (solid phase); soluble protein left in the supernatant quantified on a Coomassie gel; 10 min at 20 °C; 10 mM Hepes pH 7.5, 100 mM NaCl, 1 mM DTT, 200 μM ATP, 5 mM MgCl2, 0.1% Tween-20; 'apparent'.
Experiment [6] concerns the target T4, Par complex Par-6ΔPBM. The description is as above.

As to B1, the binding result in experiment [1] is on record as “binds”.
Take B2: the binding result in experiment [2], in experiment [3] and in experiment [4] was “binds” each time.
Regarding B3, the binding result in experiment [5] and in experiment [6] was “binds” throughout.
